According to patent US20240174744A1 (SCIRHOM, published 2024):

T1: hiR2-FL-P533-T7 (human iRhom2 full length with deletion of P533, 3 x T7 tag) (human, UniProt Q6PJF5 1-856)
T1 construct: The change is a deletion of one residue, not a substitution
T1 sequence: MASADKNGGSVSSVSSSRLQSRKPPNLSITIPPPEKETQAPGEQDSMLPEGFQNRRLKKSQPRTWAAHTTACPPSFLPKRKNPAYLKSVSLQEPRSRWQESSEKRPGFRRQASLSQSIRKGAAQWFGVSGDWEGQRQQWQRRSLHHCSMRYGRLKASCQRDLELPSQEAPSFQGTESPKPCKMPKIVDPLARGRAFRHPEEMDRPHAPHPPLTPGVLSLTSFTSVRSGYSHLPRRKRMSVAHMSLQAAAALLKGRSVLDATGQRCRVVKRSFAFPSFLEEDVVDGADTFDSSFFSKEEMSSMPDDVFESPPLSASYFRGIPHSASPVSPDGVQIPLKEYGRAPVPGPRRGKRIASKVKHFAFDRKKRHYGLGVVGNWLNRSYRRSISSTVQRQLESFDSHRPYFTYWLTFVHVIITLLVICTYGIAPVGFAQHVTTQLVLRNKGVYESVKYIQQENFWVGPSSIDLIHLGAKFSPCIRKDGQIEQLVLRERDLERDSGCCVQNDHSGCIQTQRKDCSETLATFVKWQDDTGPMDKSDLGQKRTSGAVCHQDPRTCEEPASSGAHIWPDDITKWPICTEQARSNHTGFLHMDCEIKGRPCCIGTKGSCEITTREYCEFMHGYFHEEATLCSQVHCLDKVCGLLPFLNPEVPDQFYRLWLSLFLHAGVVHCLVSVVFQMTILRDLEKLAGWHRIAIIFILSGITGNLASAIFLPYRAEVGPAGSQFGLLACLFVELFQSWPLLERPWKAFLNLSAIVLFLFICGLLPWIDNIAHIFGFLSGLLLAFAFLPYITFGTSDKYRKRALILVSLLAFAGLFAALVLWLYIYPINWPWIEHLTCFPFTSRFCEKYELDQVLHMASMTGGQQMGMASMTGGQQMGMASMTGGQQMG


What follows are binders tested against T1, hiR2-FL-P533-T7 (human iRhom2 full …) (assay: FACS on cells of the row P533-).

Binder | binding result
antibody 16 (antibody, V domains shown, Mouse IgG, kappa light chain; also called clone #16; m16) VH: QVTLKESGPGILQPSQTLSLTCSFSGFSLSTFALGVGWIRQPSGRGLEWLAHIWWDDDKYYNPALKSRLTISKDTSKNHVFLKIANVDTADTATYYCARITTYYYGMDYWGQGTSVTVSS VL: DIVLSQSPATLSVTPGDSVSLFCRASQSIGNHLHWYQQESHASPRLLIKYASQSISGIPSRFSGSGSGTDFTLSINSVETEDFGMYFCQQSYNWPLTFGAGTKLELK | no binding (tested: 3 µg/ml)
antibody 34 (antibody, V domains shown, Mouse IgG, kappa light chain; also called clone #34; m34) VH: QVTLKESGPGILQPSQTLSLTCSFSGFSLSTFSLGVGWIRQSSGKGLEWLAHIWWDDEKYYNPALKSRLTISKDTSKNQVFLKIANVDAADTATYYCARAYYSKSYYALDYWGQGTSVTVSS VL: DIQMTQSPSSLSASLGERVSLTCRASQEISGYLSWLQQKPDGTIKRLIYAASTLDSGVPKRFSGSRSGSDYSLAISSLESEDFADYYCLQYANFPFTFGSGTKLEIK | no binding (tested: 3 µg/ml)
antibody 43 (antibody, V domains shown, Mouse IgG, kappa light chain; also called clone #43) VH: QVALKESGPGILQPSQTLSLTCSFSGFSLSTFGMGVGWIRQSSGKGLEWLANIWWDDDKYYNPALKSRLTISKDASKNQAFLKIANVDTADTATYYCARIGNYGSNYWYFDVWGTGTTVTVSS VL: QIVLTQSPAIMSASPGERVTMTCSANSRISYMYWYQQKPGSSPRLLIYDTSNLASGVPVRFSGSGSGTSYSLTISRMEAEDAATYNCQQWSSYPLTFGAGTKLELK | no binding (tested: 3 µg/ml)
antibody 5 (antibody, V domains shown, Mouse IgG, kappa light chain; also called clone #5; purified antibody 5) VH: QVTLKESGPGILQPSQTLSLTCSFSGFSLSTFGMGVGWIRQPSGKGLEWLAHIWWDDEKYYNSALKSRLTISKATSKNQAFLKIANVDTADTATYYCARISNYGSNYWYFNVWGTGTTVTVSS VL: QVVLTQSPALMSASPGEKVTMTCSAGSSVSCMYWYQQKPGSSPRVLIYDTSNLASGVPARFTGSGSGTSYSLTISRMEAEDAASYYCQQWNSYPLTFGAGTKLELK | no binding (tested: 3 µg/ml)
antibody 44 (antibody, V domains shown, Mouse IgG, kappa light chain; also called clone #44; m44) VH: QVTLKESGPGILQPSQTLSLTCSFSGFSLSTFGMGVGWIRQPSEKGLEWLAHIWWDDDKYYNPALKSRLTISKDTSKNQIFLKITNVDTAETATYYCSRIGNYGSNYWYFDVWGTGTTVTVSS VL: QIVLTQSPAVMSASPGEKVTMTCTASSSVYYMYWYQQTPGSSPRLLIYDTSNLASGVPVRFSGSGSGTSYSLTISRMEAEDAATYYCQQWNTYPLTFGAGTKLELK | no binding (tested: 3 µg/ml)
antibody 42 (antibody, V domains shown, Mouse IgG, kappa light chain; also called clone #42; m42) VH: QVTLKESGPGILQPSQTLSLTCSLSGFSLSTFGRGVGWIRQPSGKGLEWLAHIWWDDEKYYNPALKSRLTISKDTSKNQVFLRIANVDTADTATYYCARIQNYGSNYWYFDVWGTGTTVTVSS VL: LIVLTQSPAIMSASPGEKVTMTCGATSRISYMFWYQQKPGSSPRVLIYDTSNLASGVPVRFSGSGSGTSYSLTISRVEAEDVATYYCQQWNSYPLTFGAGTKLELK | no binding (tested: 3 µg/ml)
antibody 22 (antibody, V domains shown, Mouse IgG, kappa light chain; also called clone #22; m22) VH: QVTLKESGPGILQPSQTLSLTCSFSGFSLSTFGMGVGWIRQPSGKGLEWLAHIWWDDEKYYNSALKSRLTISKATSKNQVFLKIANVDTADTATYYCARISNYGSNYWYFNVWGTGTTVTVSS VL: QVVLTQSPALMSASPGEKVTMTCSAGSSVSYMYWYQQKPGSSPRVLIYDTSNLASGVPARFTGSGSGTSYSLTISRMEAEDAATYYCQQWNSYPLTFGAGTKLELK | no binding (tested: 3 µg/ml)
